In doi:10.1101/239830:

Assays:
Assay in all cases: fluorescence polarisation
[1] = target: OR-1 peptide derived from olfactory receptor OLFR1507
[2] = target: V1rb2-1 peptide derived from vomeronasal receptor V1RB2
[3] = target: V1rb2-2 peptide derived from vomeronasal receptor V1RB2

PERK LD as used in the fluorescence anisotropy assays (domain or fragment)
Kd [1]: 250 µM
Kd [2]: 6.6 µM
Kd [3]: 6.1 µM
